From article PMC4268710 come the findings set out here.

This assay has as its target OM14 assembled in the outer membrane of isolated mitochondria (S. cerevisiae (endogenous in yeast)) (UniProt P38325). In words: co-sedimentation; 10 μg purified yeast ribosomes with 25 μg highly purified mitochondria (OM14^+ or OM14Δ, from NAC-deleted cells), 5 min at room temperature in MA buffer, 10,000 g; Rpl3 in the pellet normalised to Tom20.
UniProt P38325, sequence (P38325 whole entry): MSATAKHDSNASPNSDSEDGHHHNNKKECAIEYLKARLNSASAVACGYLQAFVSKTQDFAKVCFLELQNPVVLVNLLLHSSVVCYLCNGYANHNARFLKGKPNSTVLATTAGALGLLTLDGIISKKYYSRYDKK

Regarding “yeast cytosolic ribosomes (from UniProt P14126 1-387) (complex)”, the fold ribosomal association, mitochondria with OM14 over OM14Δ mitochondria is more than 2 fold.
